# Positions of bridges follow the written chain, without caps; N, C: chain ends. Non-standard residues stand in square brackets, D forms with d. dPhe(2-CF3) = N[C@H](Cc1ccccc1C(F)(F)F)C(=O)O; dPhe(4-CN) = N#Cc1ccc(C[C@@H](N)C(=O)O)cc1; dPhe(3-Cl) = N[C@H](Cc1cccc(Cl)c1)C(=O)O; dPhe(2-Cl) = N[C@H](Cc1ccccc1Cl)C(=O)O; dPhe(2-Me) = Cc1ccccc1C[C@@H](N)C(=O)O; dPhe(4-F) = N[C@H](Cc1ccc(F)cc1)C(=O)O; dPhe(2-F) = N[C@H](Cc1ccccc1F)C(=O)O; Orn = NCCC[C@H](N)C(=O)O; Dab = NCC[C@H](N)C(=O)O
# B1: Ac-Arg-cyclo(Glu-Glu-D-Phe(4-CN)-Arg-Trp-Orn)-NH2 (peptide)
# peptide: Ac-REE[dPhe(4-CN)]RW[Orn]-NH2
# modifications: lactam 2-7
# SMILES: CC(=O)N[C@@H](CCCNC(=N)N)C(=O)N[C@H]1CCC(=O)NCCC[C@@H](C(N)=O)NC(=O)[C@H](Cc2c[nH]c3ccccc23)NC(=O)[C@H](CCCNC(=N)N)NC(=O)[C@@H](Cc2ccc(C#N)cc2)NC(=O)[C@H](CCC(=O)O)NC1=O
# B2: Ac-Arg-cyclo(Glu-Thr-D-Phe(4-CN)-Arg-Trp-Orn)-NH2 (peptide)
# peptide: Ac-RET[dPhe(4-CN)]RW[Orn]-NH2
# modifications: lactam 2-7
# SMILES: CC(=O)N[C@@H](CCCNC(=N)N)C(=O)N[C@H]1CCC(=O)NCCC[C@@H](C(N)=O)NC(=O)[C@H](Cc2c[nH]c3ccccc23)NC(=O)[C@H](CCCNC(=N)N)NC(=O)[C@@H](Cc2ccc(C#N)cc2)NC(=O)[C@H]([C@@H](C)O)NC1=O
# notes: also called No. 44
# B3: Ac-Arg-cyclo(Glu-Pro-D-Phe(4-CN)-Arg-Trp-Orn)-NH2 (peptide)
# peptide: Ac-REP[dPhe(4-CN)]RW[Orn]-NH2
# modifications: lactam 2-7
# SMILES: CC(=O)N[C@@H](CCCNC(=N)N)C(=O)N[C@H]1CCC(=O)NCCC[C@@H](C(N)=O)NC(=O)[C@H](Cc2c[nH]c3ccccc23)NC(=O)[C@H](CCCNC(=N)N)NC(=O)[C@@H](Cc2ccc(C#N)cc2)NC(=O)[C@@H]2CCCN2C1=O
# notes: also called No. 39
# B4: Ac-Arg-cyclo(Glu-Ser-D-Phe(4-F)-Arg-Trp-Orn)-NH2 (peptide)
# peptide: Ac-RES[dPhe(4-F)]RW[Orn]-NH2
# modifications: lactam 2-7
# SMILES: CC(=O)N[C@@H](CCCNC(=N)N)C(=O)N[C@H]1CCC(=O)NCCC[C@@H](C(N)=O)NC(=O)[C@H](Cc2c[nH]c3ccccc23)NC(=O)[C@H](CCCNC(=N)N)NC(=O)[C@@H](Cc2ccc(F)cc2)NC(=O)[C@H](CO)NC1=O
# notes: also called No. 65
# B5: Ac-Arg-cyclo(Glu-Pro-D-Phe(4-F)-Arg-Trp-Orn)-OH (peptide)
# peptide: Ac-REP[dPhe(4-F)]RW[Orn]-OH
# modifications: lactam 2-7
# SMILES: CC(=O)N[C@@H](CCCNC(=N)N)C(=O)N[C@H]1CCC(=O)NCCC[C@@H](C(=O)O)NC(=O)[C@H](Cc2c[nH]c3ccccc23)NC(=O)[C@H](CCCNC(=N)N)NC(=O)[C@@H](Cc2ccc(F)cc2)NC(=O)[C@@H]2CCCN2C1=O
# B6: Ac-Arg-cyclo(Glu-Ser-D-Phe(2-Cl)-Arg-Trp-Orn)-NH2 (peptide)
# peptide: Ac-RES[dPhe(2-Cl)]RW[Orn]-NH2
# modifications: lactam 2-7
# SMILES: CC(=O)N[C@@H](CCCNC(=N)N)C(=O)N[C@H]1CCC(=O)NCCC[C@@H](C(N)=O)NC(=O)[C@H](Cc2c[nH]c3ccccc23)NC(=O)[C@H](CCCNC(=N)N)NC(=O)[C@@H](Cc2ccccc2Cl)NC(=O)[C@H](CO)NC1=O
# notes: also called No. 31
# B7: Ac-Arg-cyclo(Glu-Pro-D-Phe(2-F)-Arg-Trp-Orn)-NH2 (peptide)
# peptide: Ac-REP[dPhe(2-F)]RW[Orn]-NH2
# modifications: lactam 2-7
# SMILES: CC(=O)N[C@@H](CCCNC(=N)N)C(=O)N[C@H]1CCC(=O)NCCC[C@@H](C(N)=O)NC(=O)[C@H](Cc2c[nH]c3ccccc23)NC(=O)[C@H](CCCNC(=N)N)NC(=O)[C@@H](Cc2ccccc2F)NC(=O)[C@@H]2CCCN2C1=O
# notes: also called No. 66
# B8: Ac-Arg-cyclo(Glu-Ser-D-Phe(4-CN)-Arg-Trp-Orn)-NH2 (peptide)
# peptide: Ac-RES[dPhe(4-CN)]RW[Orn]-NH2
# modifications: lactam 2-7
# SMILES: CC(=O)N[C@@H](CCCNC(=N)N)C(=O)N[C@H]1CCC(=O)NCCC[C@@H](C(N)=O)NC(=O)[C@H](Cc2c[nH]c3ccccc23)NC(=O)[C@H](CCCNC(=N)N)NC(=O)[C@@H](Cc2ccc(C#N)cc2)NC(=O)[C@H](CO)NC1=O
# notes: also called No. 45
# Molecular target: T1, human melanocortin-4 receptor (human, UniProt P32245 1-332)
# T1 sequence (P32245 whole entry): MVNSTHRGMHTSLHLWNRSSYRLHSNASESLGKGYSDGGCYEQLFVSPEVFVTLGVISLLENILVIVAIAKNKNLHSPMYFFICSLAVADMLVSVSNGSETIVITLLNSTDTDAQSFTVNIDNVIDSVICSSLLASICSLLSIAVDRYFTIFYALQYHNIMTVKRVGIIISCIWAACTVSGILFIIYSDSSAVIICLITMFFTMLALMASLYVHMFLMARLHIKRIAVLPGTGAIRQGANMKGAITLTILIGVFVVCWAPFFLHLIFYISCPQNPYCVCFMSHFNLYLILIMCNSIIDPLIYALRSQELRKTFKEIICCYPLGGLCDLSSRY
# Assay: cell-based or functional assay
row,Binder,"EC50, cAMP, 0.1 ng/mL Doxycycline [nM]"
1,Ac-RE[Dab][dF]RW[Orn]-NH2 (lactam 2-7) [Ac-Arg-cyclo(Glu-Dab-D-Phe-Arg-Trp-Orn)-NH2],0.33

# Molecular target: T1, human melanocortin-4 receptor
# Assay: cell-based or functional assay
# Remark: another data set of the same source
Binder,"EC50, cAMP, 0.1 ng/mL Doxycycline [nM]","EC50, cAMP, 10 ng/mL Doxycycline [nM]","Intrinsic Activity, cAMP, 0.1 ng/mL Doxycycline [%]","Intrinsic Activity, cAMP, 10 ng/mL Doxycycline [%]"
"Ac-REQ[dPhe(2-CF3)]RW[Orn]-NH2 (lactam 2-7, also called No. 114) [Ac-Arg-cyclo(Glu-Gln-D-Phe(2-CF3)-Arg-Trp-Orn)-NH2]",1,0.185,73,117
B1,,9,3,59
B2,11,0.617,22,99
B3,,1,4,79
B4,1,0.085,58,93
"Ac-REP[dPhe(4-F)]RW[Orn]-NH2 (lactam 2-7; also: acetate salt, acetate salt form; also called Ex 67) [Ac-Arg-cyclo(Glu-Pro-D-Phe(4-F)-Arg-Trp-Orn)-NH2]",1,0.14,38,99
B5,18,0.725,30,97
B6,7,0.313,33,98
B7,5,0.265,32,88
B8,,0.45,12,87
"XDQXRWK (N-terminal Ac; D-Arg 1; D-Phe(3-Cl) 4; lactam Asp 2-Lys 7; C-terminal NH2, also called No. 80) [Ac-D-Arg-cyclo(Asp-Gln-D-Phe(3-Cl)-Arg-Trp-Lys)-NH2]",6,0.65,13,86
"XDQXRWK (N-terminal Ac; D-Arg 1; D-Phe(2-Cl) 4; lactam Asp 2-Lys 7; C-terminal NH2, also called No. 79) [Ac-D-Arg-cyclo(Asp-Gln-D-Phe(2-Cl)-Arg-Trp-Lys)-NH2]",4,0.2,48,85
"Ac-REQ[dPhe(4-CN)]RW[Orn]-OH (lactam 2-7, also called No. 86) [Ac-Arg-cyclo(Glu-Gln-D-Phe(4-CN)-Arg-Trp-Orn)-OH]",9,0.483,36,96
"Ac-R[Orn]N[dPhe(2-Me)]RWE-NH2 (lactam 2-7, also called No. 74) [Ac-Arg-cyclo(Orn-Asn-D-Phe(2-Me)-Arg-Trp-Glu)-NH2]",0.943,0.11,68,100
"Ac-R[Orn]Q[dPhe(2-CF3)]RWE-NH2 (lactam 2-7, also called No. 115) [Ac-Arg-cyclo(Orn-Gln-D-Phe(2-CF3)-Arg-Trp-Glu)-NH2]",0.8,0.17,54,108
"Ac-R[Orn]N[dPhe(2-F)]RWE-NH2 (lactam 2-7, also called No. 71) [Ac-Arg-cyclo(Orn-Asn-D-Phe(2-F)-Arg-Trp-Glu)-NH2]",1,0.085,,
"Ac-REQ[dPhe(3-Cl)]RW[Orn]-NH2 (lactam 2-7, also called No. 38) [Ac-Arg-cyclo(Glu-Gln-D-Phe(3-Cl)-Arg-Trp-Orn)-NH2]",2,0.258,31,97

# Molecular target: T2, melanocortin-1 receptor (mouse (B-16 melanoma cells); in some …, UniProt Q01727 1-315)
# T2 construct: whole, on cells; membrane homogenates; also called MC1-R; mouse B16 MC1-R
# T2 sequence (Q01727 whole entry): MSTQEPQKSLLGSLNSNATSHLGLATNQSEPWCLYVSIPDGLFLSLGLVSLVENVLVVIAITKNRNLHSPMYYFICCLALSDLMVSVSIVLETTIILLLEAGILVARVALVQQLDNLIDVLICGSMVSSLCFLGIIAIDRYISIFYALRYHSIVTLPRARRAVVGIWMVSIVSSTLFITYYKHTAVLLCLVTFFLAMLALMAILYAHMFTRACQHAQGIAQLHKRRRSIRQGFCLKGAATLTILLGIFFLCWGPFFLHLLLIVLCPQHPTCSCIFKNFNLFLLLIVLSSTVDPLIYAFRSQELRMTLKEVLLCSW
# Assay: [I125]-NDP-α-MSH competition, MC1-R membranes
# Procedure: (§1) A competitive inhibition binding assay was performed for exemplified peptides according to the invention using membrane homogenates prepared from HEK-293 cells that express recombinant hMC4-R, hMC3-R, or hMC5-R, and from B-16 mouse melanoma cells (containing endogenous MC1-R). In some instances, HEK-293 cells that express recombinant hMC1-R were employed. Assays were performed in 96 well GF/B Millipore multiscreen filtration plates (MAFB NOB10) pre-coated with 0.5% bovine serum albumin (Fraction V). […] After incubation for 60 minutes at 37° C., the assay mixture was filtered and the membranes washed three times with ice-cold buffer. Filters were dried and counted in a gamma counter for bound radioactivity. […] Each assay was conducted in triplicate and the actual mean values are described, with results less than 0% reported as 0%. Ki values for test peptides of the present invention were determined using Graph-Pad Prism® curve-fitting software.
row,Binder,Ki [nM]
1,"Ac-REQ[dPhe(2-CF3)]RW[Orn]-NH2 (lactam 2-7, also called No. 114) [Ac-Arg-cyclo(Glu-Gln-D-Phe(2-CF3)-Arg-Trp-Orn)-NH2]",93
2,B1,10000
3,B2,1620
4,B3,1550
5,B4,43
6,"Ac-REP[dPhe(4-F)]RW[Orn]-NH2 (lactam 2-7; also: acetate salt, acetate salt form; also called Ex 67) [Ac-Arg-cyclo(Glu-Pro-D-Phe(4-F)-Arg-Trp-Orn)-NH2]",130
7,B5,730
8,B6,300
9,B7,95
10,B8,10000
11,"XDQXRWK (N-terminal Ac; D-Arg 1; D-Phe(3-Cl) 4; lactam Asp 2-Lys 7; C-terminal NH2, also called No. 80) [Ac-D-Arg-cyclo(Asp-Gln-D-Phe(3-Cl)-Arg-Trp-Lys)-NH2]",1750
12,"XDQXRWK (N-terminal Ac; D-Arg 1; D-Phe(2-Cl) 4; lactam Asp 2-Lys 7; C-terminal NH2, also called No. 79) [Ac-D-Arg-cyclo(Asp-Gln-D-Phe(2-Cl)-Arg-Trp-Lys)-NH2]",395
13,"Ac-REQ[dPhe(4-CN)]RW[Orn]-OH (lactam 2-7, also called No. 86) [Ac-Arg-cyclo(Glu-Gln-D-Phe(4-CN)-Arg-Trp-Orn)-OH]",3970
14,"Ac-R[Orn]N[dPhe(2-Me)]RWE-NH2 (lactam 2-7, also called No. 74) [Ac-Arg-cyclo(Orn-Asn-D-Phe(2-Me)-Arg-Trp-Glu)-NH2]",405
15,"Ac-R[Orn]Q[dPhe(2-CF3)]RWE-NH2 (lactam 2-7, also called No. 115) [Ac-Arg-cyclo(Orn-Gln-D-Phe(2-CF3)-Arg-Trp-Glu)-NH2]",235
16,"Ac-R[Orn]N[dPhe(2-F)]RWE-NH2 (lactam 2-7, also called No. 71) [Ac-Arg-cyclo(Orn-Asn-D-Phe(2-F)-Arg-Trp-Glu)-NH2]",335
17,"Ac-REQ[dPhe(3-Cl)]RW[Orn]-NH2 (lactam 2-7, also called No. 38) [Ac-Arg-cyclo(Glu-Gln-D-Phe(3-Cl)-Arg-Trp-Orn)-NH2]",290

# Molecular target: T1, human melanocortin-4 receptor
# Assay: [I125]-NDP-α-MSH competition, hMC4-R HEK-293 membranes
# Procedure: as §1
row,Binder,Ki [nM]
1,"Ac-REQ[dPhe(2-CF3)]RW[Orn]-NH2 (lactam 2-7, also called No. 114) [Ac-Arg-cyclo(Glu-Gln-D-Phe(2-CF3)-Arg-Trp-Orn)-NH2]",8
2,B1,128
3,B2,18
4,B3,4
5,B4,5
6,"Ac-REP[dPhe(4-F)]RW[Orn]-NH2 (lactam 2-7; also: acetate salt, acetate salt form; also called Ex 67) [Ac-Arg-cyclo(Glu-Pro-D-Phe(4-F)-Arg-Trp-Orn)-NH2]",5
7,B5,30
8,B6,8
9,B7,6
10,B8,10
11,"XDQXRWK (N-terminal Ac; D-Arg 1; D-Phe(3-Cl) 4; lactam Asp 2-Lys 7; C-terminal NH2, also called No. 80) [Ac-D-Arg-cyclo(Asp-Gln-D-Phe(3-Cl)-Arg-Trp-Lys)-NH2]",7
12,"XDQXRWK (N-terminal Ac; D-Arg 1; D-Phe(2-Cl) 4; lactam Asp 2-Lys 7; C-terminal NH2, also called No. 79) [Ac-D-Arg-cyclo(Asp-Gln-D-Phe(2-Cl)-Arg-Trp-Lys)-NH2]",10
13,"Ac-REQ[dPhe(4-CN)]RW[Orn]-OH (lactam 2-7, also called No. 86) [Ac-Arg-cyclo(Glu-Gln-D-Phe(4-CN)-Arg-Trp-Orn)-OH]",40
14,"Ac-R[Orn]N[dPhe(2-Me)]RWE-NH2 (lactam 2-7, also called No. 74) [Ac-Arg-cyclo(Orn-Asn-D-Phe(2-Me)-Arg-Trp-Glu)-NH2]",5
15,"Ac-R[Orn]Q[dPhe(2-CF3)]RWE-NH2 (lactam 2-7, also called No. 115) [Ac-Arg-cyclo(Orn-Gln-D-Phe(2-CF3)-Arg-Trp-Glu)-NH2]",4
16,"Ac-R[Orn]N[dPhe(2-F)]RWE-NH2 (lactam 2-7, also called No. 71) [Ac-Arg-cyclo(Orn-Asn-D-Phe(2-F)-Arg-Trp-Glu)-NH2]",9
17,"Ac-REQ[dPhe(3-Cl)]RW[Orn]-NH2 (lactam 2-7, also called No. 38) [Ac-Arg-cyclo(Glu-Gln-D-Phe(3-Cl)-Arg-Trp-Orn)-NH2]",3

# Molecular target: T1, human melanocortin-4 receptor
# Assay: Ki of Table 1; receptor not given, taken as hMC4-R
row,Binder,Ki [nM]
1,Ac-RE[Dab][dF]RW[Orn]-NH2 (lactam 2-7) [Ac-Arg-cyclo(Glu-Dab-D-Phe-Arg-Trp-Orn)-NH2],0.65

# Source: patent US20100311648A1 (AstraZeneca / MedImmune, published 2010)
